One block for each binder: values may come before it.
B3: his6-Vam3 (full length), His6-tagged Qa SNARE (natural protein, S. cerevisiae, UniProt Q12241 1-283, looked up)
chain: MSFFDIEAQSSKGNSQQEPQFSTNQKTKELSNLIETFAEQSRVLEKECTKIGSKRDSKELRYKIETELIPNCTSVRDKIESNILIHQNGKLSADFKNLKTKYQSLQQSYNQRKSLFPLKTPISPGTSKERKDIHPRTEAVRQDPESSYISIKVNEQSPLLHNEGQHQLQLQEEQEQQQQGLSQEELDFQTIIHQERSQQIGRIHTAVQEVNAIFHQLGSLVKEQGEQVTTIDENISHLHDNMQNANKQLTRADQHQRDRNKCGKVTLIIIIVVCMVVLLAVLS
notes: Vam3, vacuolar Qa-SNARE, S. cerevisiae, full length; A 36 amino acyl linker stands between the his6 tag and the N-terminus (Izawa et al., 2012, PMID 22174414); also called His6-Qa; source: E. coli, purified; not shown: His6 (with a 36 amino acyl linker), N-terminal, kept

Assays:
Details in all cases: both partners purified
[1] = target: T1, Qa-SNARE Vam3, full-length, wild-type (S. cerevisiae, UniProt Q12241 1-283); assay: pull-down; GST-tagged R at 4 µM mixed with 4 µM of the other indicated full-length SNAREs in 20 mM HEPES-NaOH pH 7.4, 150 mM NaCl, 10% glycerol, 100 mM ß-octylglucoside; 1 hr 4°C; glutathione agarose 4B; Coomassie-stained gel
T1 construct: Vam3, vacuolar Qa-SNARE, S. cerevisiae, full length; Isolated as GST-Qa (Mima et al., 2008); also called GST-Qa; source: E. coli, purified; reconstituted into proteoliposomes
T1 sequence (looked up): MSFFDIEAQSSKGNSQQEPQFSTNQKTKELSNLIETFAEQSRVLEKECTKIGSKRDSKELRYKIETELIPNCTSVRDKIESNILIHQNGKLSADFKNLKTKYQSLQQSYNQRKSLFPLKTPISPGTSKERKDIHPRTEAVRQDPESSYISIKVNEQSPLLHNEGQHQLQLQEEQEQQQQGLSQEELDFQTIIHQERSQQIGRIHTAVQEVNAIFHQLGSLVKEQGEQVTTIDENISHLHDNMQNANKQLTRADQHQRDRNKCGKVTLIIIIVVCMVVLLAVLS

[2] = target: T1, Qa-SNARE Vam3, full-length, wild-type; assay: co-IP; Ypt7/R and Ypt7/QaQb proteoliposomes incubated 33 min with or without 50 nM HOPS and 4 μM Qc; solubilised in modified RIPA buffer with 5 μM GST-R; precipitated with anti-Qa antibody on protein A magnetic beads, 4°C 2 hr; immunoblot for R
[3] = target: B3; assay: pull-down; his6-tagged Qa or his6-tagged Qb at 4 µM mixed with 4 µM of the other indicated full-length SNAREs in 20 mM HEPES-NaOH pH 7.4, 150 mM NaCl, 10% glycerol, 100 mM ß-octylglucoside, 20 mM imidazole; 1 hr 4°C; nickel-NTA agarose; Coomassie-stained gel
[4] = target: T2, Qc-SNARE Vam7, full-length, wild-type (inherently water-soluble) (S. cerevisiae, UniProt P32912 1-316); assay: as above
T2 construct: Vam7, vacuolar Qc-SNARE, S. cerevisiae, full length; source: E. coli, purified
T2 sequence (looked up): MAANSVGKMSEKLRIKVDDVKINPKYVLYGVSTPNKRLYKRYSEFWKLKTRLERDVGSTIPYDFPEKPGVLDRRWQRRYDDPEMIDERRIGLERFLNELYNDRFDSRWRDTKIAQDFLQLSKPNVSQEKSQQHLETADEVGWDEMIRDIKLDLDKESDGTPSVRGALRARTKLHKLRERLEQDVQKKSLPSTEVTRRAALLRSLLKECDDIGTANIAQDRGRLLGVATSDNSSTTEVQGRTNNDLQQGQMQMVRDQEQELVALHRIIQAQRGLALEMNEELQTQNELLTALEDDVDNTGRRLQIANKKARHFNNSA

[5] = target: T1, Qa-SNARE Vam3, full-length, wild-type; assay: as above

- binding result [1]: binds
B1: GST-Nyv1, GST-tagged full-length R SNARE (natural protein, S. cerevisiae, UniProt Q12255 1-253, looked up)
chain: MKRFNVSYVEVIKNGETISSCFQPFQKNENYGTITSANEQITPVIFHNLIMDMVLPKVVPIKGNKVTKMSMNLIDGFDCFYSTDDHDPKTVYVCFTLVDMPKILPIRILSGLQEYESNATNELLSSHVGQILDSFHEELVEYRNQTLNSSGNGQSSNGNGQNTISDIGDATEDQIKDVIQIMNDNIDKFLERQERVSLLVDKTSQLNSSSNKFRRKAVNIKEIMWWQKVKNITLLTFTIILFVSAAFMFFYLW
notes: Nyv1, vacuolar R-SNARE, S. cerevisiae, full length, cloned into pGST parallel1; Vector pGST parallel1 (Sheffield et al., 1999), BamHI/SalI; also called GST-R; GST-tagged R SNARE; source: E. coli Rosetta(DE3)pLysS, purified (glutathione-Sepharose 4B, in β-octylglucoside)

- binding result [2]: binds
- binding result [3]: binds
B2: R-SNARE Nyv1, full-length, wild-type, untagged (natural protein, S. cerevisiae, UniProt Q12255 1-253, looked up)
chain: MKRFNVSYVEVIKNGETISSCFQPFQKNENYGTITSANEQITPVIFHNLIMDMVLPKVVPIKGNKVTKMSMNLIDGFDCFYSTDDHDPKTVYVCFTLVDMPKILPIRILSGLQEYESNATNELLSSHVGQILDSFHEELVEYRNQTLNSSGNGQSSNGNGQNTISDIGDATEDQIKDVIQIMNDNIDKFLERQERVSLLVDKTSQLNSSSNKFRRKAVNIKEIMWWQKVKNITLLTFTIILFVSAAFMFFYLW
notes: Nyv1, vacuolar R-SNARE, S. cerevisiae, full length; source: E. coli, purified; buffer exchanged into β-octylglucoside; reconstituted into proteoliposomes

Binder: B3
- binding result [4]: binds

- binding result [5]: binds
B4: his6-Vti1 (full length), his6-tagged Qb SNARE (natural protein, S. cerevisiae, UniProt Q04338 1-217, looked up)
chain: MSSLLISYESDFKTTLEQAKASLAEAPSQPLSQRNTTLKHVEQQQDELFDLLDQMDVEVNNSIGDASERATYKAKLREWKKTIQSDIKRPLQSLVDSGDRDRLFGDLNASNIDDDQRQQLLSNHAILQKSGDRLKDASRIANETEGIGSQIMMDLRSQRETLENARQTLFQADSYVDKSIKTLKTMTRRLVANKFISYAIIAVLILLILLVLFSKFK
notes: Vti1, vacuolar Qb-SNARE, S. cerevisiae, full length; A 36 amino acyl linker stands between the his6 tag and the N-terminus (Izawa et al., 2012, PMID 22174414); also called his6-Qb; source: E. coli, purified; not shown: His6 (with a 36 amino acyl linker), N-terminal, kept

- binding result [3]: binds
B5: Qb-SNARE Vti1, full-length, wild-type (natural protein, S. cerevisiae, UniProt Q04338 1-217, looked up)
chain: MSSLLISYESDFKTTLEQAKASLAEAPSQPLSQRNTTLKHVEQQQDELFDLLDQMDVEVNNSIGDASERATYKAKLREWKKTIQSDIKRPLQSLVDSGDRDRLFGDLNASNIDDDQRQQLLSNHAILQKSGDRLKDASRIANETEGIGSQIMMDLRSQRETLENARQTLFQADSYVDKSIKTLKTMTRRLVANKFISYAIIAVLILLILLVLFSKFK
notes: Vti1, vacuolar Qb-SNARE, S. cerevisiae, full length; the text names it Qb without a tag; also called GST-Qb; source: E. coli, purified; buffer exchanged into β-octylglucoside; reconstituted into proteoliposomes

Reference: PMC6994237, “HOPS recognizes each SNARE, assembling ternary trans-complexes for rapid fusion upon engagement with the 4th SNARE” (eLife, 2020)
